Source: paper PMC3504387 (Chemmedchem, 2012)
Each block holds one molecule with its values, some of them ahead of it. Where no end group is shown, it is not given here. The star is where a group is joined. Biotin = O=C1N[C@H]2[C@H](CS[C@H]2CCCCC(=O)*)N1; Ahx = NCCCCCC(=O)O

What was measured:
[1] = molecular target: T1, GST–PPARα (ligand binding domain, TR-FRET) (Homo sapiens, UniProt Q07869); experiment: TR-FRET cofactor peptide recruitment
T1 construct: gene PPARA
T1 sequence (Q07869 196-468 limits assumed): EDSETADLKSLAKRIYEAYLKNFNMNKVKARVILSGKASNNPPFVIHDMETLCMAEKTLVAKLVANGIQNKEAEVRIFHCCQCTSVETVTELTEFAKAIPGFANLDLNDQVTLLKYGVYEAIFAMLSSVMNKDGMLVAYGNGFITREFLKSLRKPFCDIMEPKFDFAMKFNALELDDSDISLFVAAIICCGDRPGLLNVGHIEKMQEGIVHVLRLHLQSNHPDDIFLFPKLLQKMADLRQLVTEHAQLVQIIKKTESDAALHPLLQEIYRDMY

[2] = molecular target: T2, PPARγ (Gal4-PPARγ LBD, transactivation) (Mus musculus, UniProt P37238); experiment: Gal4-LBD luciferase transactivation, BHK21 cells; format: cell-based; conditions: agonist; […] h, […] °C; unreliable
T2 construct: gene Pparg
T2 sequence (P37238 204-505): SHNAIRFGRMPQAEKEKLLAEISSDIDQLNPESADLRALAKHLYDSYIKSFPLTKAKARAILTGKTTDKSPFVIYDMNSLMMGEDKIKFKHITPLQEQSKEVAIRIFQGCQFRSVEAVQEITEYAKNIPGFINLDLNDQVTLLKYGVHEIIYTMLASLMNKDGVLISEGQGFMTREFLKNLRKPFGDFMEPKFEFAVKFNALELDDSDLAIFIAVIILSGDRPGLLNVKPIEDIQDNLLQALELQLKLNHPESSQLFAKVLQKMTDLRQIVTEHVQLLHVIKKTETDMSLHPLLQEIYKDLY

[3] = molecular target: T3, PPARδ (Gal4-PPARδ LBD, transactivation) (Homo sapiens, UniProt Q03181); experiment: Gal4-LBD luciferase transactivation, BHK21 cells; format: cell-based; conditions: agonist; […] h, […] °C; unreliable
T3 construct: gene PPARD
T3 sequence (Q03181 139-441): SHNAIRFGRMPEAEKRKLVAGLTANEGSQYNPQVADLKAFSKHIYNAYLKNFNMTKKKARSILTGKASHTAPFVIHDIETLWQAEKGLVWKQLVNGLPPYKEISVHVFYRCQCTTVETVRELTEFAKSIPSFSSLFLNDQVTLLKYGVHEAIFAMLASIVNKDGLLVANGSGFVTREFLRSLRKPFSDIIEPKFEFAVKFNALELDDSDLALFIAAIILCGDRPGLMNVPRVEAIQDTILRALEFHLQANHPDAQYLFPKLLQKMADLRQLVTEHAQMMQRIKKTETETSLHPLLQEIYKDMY

[4] = molecular target: T4, GST–PPARα fusion protein (purified ligand binding domain of PPARα); experiment: FRET or BRET; homogeneous TR-FRET as a1, 12-concentration dose–response of rosiglitazone; the EC50 is of the compound; delta ratio in % of the reference compound at 10 μM (RO4899100 for PPARα, edaglitazone for PPARγ)
T4 sequence (Q07869 whole entry, species assumed, looked up): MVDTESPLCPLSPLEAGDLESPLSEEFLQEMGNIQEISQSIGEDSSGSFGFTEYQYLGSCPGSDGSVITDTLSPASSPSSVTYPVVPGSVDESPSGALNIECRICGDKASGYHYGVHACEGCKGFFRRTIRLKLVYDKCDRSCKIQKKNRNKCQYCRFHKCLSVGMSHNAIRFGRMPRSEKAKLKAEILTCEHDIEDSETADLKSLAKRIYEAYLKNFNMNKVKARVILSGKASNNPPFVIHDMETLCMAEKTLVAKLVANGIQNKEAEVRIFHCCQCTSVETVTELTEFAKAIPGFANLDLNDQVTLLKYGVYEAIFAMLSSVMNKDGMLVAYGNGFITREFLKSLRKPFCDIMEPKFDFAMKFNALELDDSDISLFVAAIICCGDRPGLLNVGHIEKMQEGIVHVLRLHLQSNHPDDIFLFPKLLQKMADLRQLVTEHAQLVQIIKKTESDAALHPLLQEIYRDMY

[5] = molecular target: T5, GST–PPARγ fusion protein (purified ligand binding domain of PPARγ); experiment: FRET or BRET; homogeneous TR-FRET as a1, 12-concentration dose–response of aleglitazar; the EC50 is of the compound; delta ratio in % of the reference compound at 10 μM (RO4899100 for PPARα, edaglitazone for PPARγ); conditions: both partners purified
T5 chain: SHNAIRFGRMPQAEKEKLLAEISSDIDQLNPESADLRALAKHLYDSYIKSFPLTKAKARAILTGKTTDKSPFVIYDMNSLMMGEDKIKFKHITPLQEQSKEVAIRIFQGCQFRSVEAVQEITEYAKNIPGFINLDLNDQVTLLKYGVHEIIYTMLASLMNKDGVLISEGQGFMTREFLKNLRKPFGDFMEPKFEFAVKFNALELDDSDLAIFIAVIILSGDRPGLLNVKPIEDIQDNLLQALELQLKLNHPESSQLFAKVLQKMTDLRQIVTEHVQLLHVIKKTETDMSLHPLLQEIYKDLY

[6] = molecular target: T4, GST–PPARα fusion protein (purified ligand binding domain of PPARα); experiment: FRET or BRET; homogeneous TR-FRET as a1, 12-concentration dose–response of muraglitazar; the EC50 is of the compound; delta ratio in % of the reference compound at 10 μM (RO4899100 for PPARα, edaglitazone for PPARγ)
[7] = molecular target: T4, GST–PPARα fusion protein (purified ligand binding domain of PPARα); experiment: FRET or BRET; homogeneous TR-FRET as a1, 12-concentration dose–response of tesaglitazar; the EC50 is of the compound; delta ratio in % of the reference compound at 10 μM (RO4899100 for PPARα, edaglitazone for PPARγ)
[8] = molecular target: T5, GST–PPARγ fusion protein (purified …); experiment: FRET or BRET; homogeneous TR-FRET as a1, 12-concentration dose–response of rosiglitazone; the EC50 is of the compound; delta ratio in % of the reference compound at 10 μM (RO4899100 for PPARα, edaglitazone for PPARγ); conditions: both partners purified
[9] = molecular target: T5, GST–PPARγ fusion protein (purified …); experiment: FRET or BRET; homogeneous TR-FRET as a1, 12-concentration dose–response of tesaglitazar; the EC50 is of the compound; delta ratio in % of the reference compound at 10 μM (RO4899100 for PPARα, edaglitazone for PPARγ); conditions: both partners purified
[10] = molecular target: T5, GST–PPARγ fusion protein (purified …); experiment: FRET or BRET; homogeneous TR-FRET as a1, 12-concentration dose–response of muraglitazar; the EC50 is of the compound; delta ratio in % of the reference compound at 10 μM (RO4899100 for PPARα, edaglitazone for PPARγ); conditions: both partners purified
[11] = molecular target: T4, GST–PPARα fusion protein (purified ligand binding domain of PPARα); experiment: FRET or BRET; homogeneous TR-FRET as a1, 12-concentration dose–response of edaglitazone; the EC50 is of the compound; delta ratio in % of the reference compound at 10 μM (RO4899100 for PPARα, edaglitazone for PPARγ)
[12] = molecular target: T5, GST–PPARγ fusion protein (purified …); experiment: as above; conditions: both partners purified
[13] = molecular target: T4, GST–PPARα fusion protein (purified ligand binding domain of PPARα); experiment: FRET or BRET; homogeneous TR-FRET as a1, 12-concentration dose–response of aleglitazar; the EC50 is of the compound; delta ratio in % of the reference compound at 10 μM (RO4899100 for PPARα, edaglitazone for PPARγ)
[14] = molecular target: T4, GST–PPARα fusion protein (purified ligand binding domain of PPARα); experiment: FRET or BRET; homogeneous TR-FRET as a1, 12-concentration dose–response of fenofibric acid; the EC50 is of the compound; delta ratio in % of the reference compound RO4899100 at 10 μM
[15] = molecular target: T4, GST–PPARα fusion protein (purified ligand binding domain of PPARα); experiment: FRET or BRET; homogeneous TR-FRET as a1, 12-concentration dose–response of RO4899100; the EC50 is of the compound; delta ratio in % of the reference compound at 10 μM (RO4899100 for PPARα, edaglitazone for PPARγ)
[16] = molecular target: T5, GST–PPARγ fusion protein (purified …); experiment: FRET or BRET; homogeneous TR-FRET as a1, 12-concentration dose–response of pioglitazone; the EC50 is of the compound; delta ratio in % of the reference compound at 10 μM (RO4899100 for PPARα, edaglitazone for PPARγ); conditions: both partners purified
[17] = molecular target: T4, GST–PPARα fusion protein (purified ligand binding domain of PPARα); experiment: as above
[18] = molecular target: T5, GST–PPARγ fusion protein (purified …); experiment: FRET or BRET; homogeneous TR-FRET as a1, 12-concentration dose–response of farglitazar; the EC50 is of the compound; delta ratio in % of the reference compound edaglitazone at 10 μM; conditions: both partners purified
[19] = molecular target: T5, GST–PPARγ fusion protein (purified …); experiment: FRET or BRET; homogeneous TR-FRET as a1, 12-concentration dose–response of RO4899100; the EC50 is of the compound; delta ratio in % of the reference compound at 10 μM (RO4899100 for PPARα, edaglitazone for PPARγ); conditions: both partners purified

Molecule: Cc1oc(-c2ccccc2)nc1CCOc1ccc(CC2SC(=O)NC2=O)c2sccc12 (stereo not drawn) [Edaglitazone]
EC50 [1]: 1050 nM

Molecule: CC(C)(Oc1ccc(C(=O)c2ccc(Cl)cc2)cc1)C(=O)O [Fenofibric acid]
PPARδ / EC50 [2]: 1470 nM | EC50 [3]: 1060 nM

B3: CBP cofactor peptide (cAMP responsive element binding protein (CREB)-binding protein) (peptide)
peptide: {Biotin-Ahx}-SGNLVPDAASKHKQLSELLRGGSGS
notes: source: synthetic peptide (Jerini or Biosynthan, Berlin)
EC50 of aleglitazar for recruitment [5]: 3.3 nM | EC50 of rosiglitazone for recruitment [8]: 10.4 nM | EC50 of tesaglitazar for recruitment [9]: 13.9 nM | EC50 of RO4899100 for recruitment [19]: 1990 nM | EC50 of muraglitazar for recruitment [10]: 4.3 nM | EC50 of edaglitazone for recruitment [12]: 7.2 nM | EC50 of pioglitazone for recruitment [16]: 79.1 nM | EC50 of farglitazar for recruitment [18]: 3 nM

The remaining lines, values ahead:

PPARδ / EC50 [nM] [2]: 19 900 nM
Molecule: Cc1nc(-c2ccc(C(F)(F)F)cc2)ccc1CN(C)C(=O)c1cccc(OC(C)(C)C(=O)O)c1 [RO4899100, 2-methyl-2-(3-{methyl-[2-methyl-6-(4-trifluoromethyl-phenyl)pyridin-3-ylmethyl]carbamoyl}phenoxy)propionic acid]

EC50 of rosiglitazone for displacement [4]: 3000 nM | delta ratio with rosiglitazone [4]: -31% | EC50 of aleglitazar for displacement [5]: 15.3 nM | EC50 of muraglitazar for displacement [6]: 139 nM | delta ratio with muraglitazar [6]: -50% | EC50 of tesaglitazar for displacement [7]: 646 nM | delta ratio with tesaglitazar [7]: -54% | EC50 of rosiglitazone for displacement [8]: 497 nM | EC50 of tesaglitazar for displacement [9]: 537 nM | EC50 of muraglitazar for displacement [10]: 63.4 nM | EC50 of edaglitazone for displacement [11]: 1950 nM | delta ratio with edaglitazone [11]: -44% | EC50 of edaglitazone for displacement [12]: 57.1 nM | EC50 of aleglitazar for displacement [13]: 1.7 nM | delta ratio with aleglitazar [13]: -61% | EC50 of fenofibric acid for displacement [14]: 1900 nM | delta ratio with fenofibric acid [14]: -55% | EC50 of RO4899100 for displacement [15]: 18.5 nM | EC50 of pioglitazone for displacement [16]: 9420 nM | EC50 of pioglitazone for displacement [17]: 3220 nM | delta ratio with pioglitazone [17]: -54% | EC50 of farglitazar for displacement [18]: 13.6 nM
B1: NCoR ID2 cofactor peptide (nuclear receptor co-repressor, interaction domain 2) (peptide)
peptide: {Biotin-Ahx}-ADPASNLGLEDIIRKALMGSF
notes: nuclear receptor co-repressor (NCoR), ID2; also called NCoR2; NcoR2; source: synthetic peptide (Jerini or Biosynthan, Berlin)

EC50 of aleglitazar for recruitment [5]: 3.2 nM | EC50 of rosiglitazone for recruitment [8]: 41.3 nM | EC50 of tesaglitazar for recruitment [9]: 31.6 nM | EC50 of RO4899100 for recruitment [19]: 4410 nM | EC50 of muraglitazar for recruitment [10]: 6.2 nM | EC50 of edaglitazone for recruitment [12]: 9.5 nM | EC50 of pioglitazone for recruitment [16]: 431 nM | EC50 of farglitazar for recruitment [18]: 3.5 nM
B2: TRAP220 cofactor peptide (thyroid hormone receptor-associated protein complex 220 kDa component, motif 2) (peptide)
peptide: {Biotin-Ahx}-GNTKNHPMLMNLLKDNPAQDF
notes: thyroid hormone receptor-associated protein complex 220 kDa component (TRAP220), motif 2, residues 637-657; also called TRAP220_M2; TRAP220 M2; source: synthetic peptide (Jerini or Biosynthan, Berlin)

EC50 of aleglitazar for recruitment [5]: 3.2 nM | EC50 of rosiglitazone for recruitment [8]: 18.5 nM | EC50 of tesaglitazar for recruitment [9]: 24.4 nM | EC50 of RO4899100 for recruitment [19]: 2080 nM | EC50 of muraglitazar for recruitment [10]: 5.7 nM | EC50 of edaglitazone for recruitment [12]: 9.8 nM | EC50 of pioglitazone for recruitment [16]: 196 nM | EC50 of farglitazar for recruitment [18]: 3.8 nM
B4: SRC1_M2 cofactor peptide (steroid receptor co-activator 1, motif 2) (peptide)
peptide: {Biotin-Ahx}-CPSSHSSLTERHKILHRLLQEGSPS
notes: as for B3

EC50 of aleglitazar for recruitment [5]: 3.4 nM | EC50 of rosiglitazone for recruitment [8]: 23.5 nM | EC50 of tesaglitazar for recruitment [9]: 25.5 nM | EC50 of RO4899100 for recruitment [19]: 1450 nM | EC50 of muraglitazar for recruitment [10]: 6.1 nM | EC50 of pioglitazone for recruitment [16]: 222 nM | EC50 of farglitazar for recruitment [18]: 3.3 nM
B5: SRC1_M4 cofactor peptide (steroid receptor co-activator 1, motif 4) (peptide)
peptide: {Biotin-Ahx}-TSGPQTPQAQQKSLLQQLLTE
notes: as for B3
